Assay results as given in article PMC11982978, “Cancer hotspot mutations rewire ERK2 specificity by selective exclusion of docking interactions” (The Journal of Biological Chemistry, 2025).
Where a chain is given by its changes, count along the chain named. Read-outs that look alike come from different tables or passages of the source. Ends that are not written are not given here.

Experiments:
[1] = molecular target: T1, Active phosphorylated His6-tagged ERK2 WT (rat (p-0033 says mouse)), P63086; details: modification not given; phosphorylated (active form; sites not given)
[2] = molecular target: T2, Active phosphorylated His6-tagged ERK2 R133K (rat (p-0033 says mouse)), P63086; details: modification not given; phosphorylated (active form; sites not given)
T2 chain: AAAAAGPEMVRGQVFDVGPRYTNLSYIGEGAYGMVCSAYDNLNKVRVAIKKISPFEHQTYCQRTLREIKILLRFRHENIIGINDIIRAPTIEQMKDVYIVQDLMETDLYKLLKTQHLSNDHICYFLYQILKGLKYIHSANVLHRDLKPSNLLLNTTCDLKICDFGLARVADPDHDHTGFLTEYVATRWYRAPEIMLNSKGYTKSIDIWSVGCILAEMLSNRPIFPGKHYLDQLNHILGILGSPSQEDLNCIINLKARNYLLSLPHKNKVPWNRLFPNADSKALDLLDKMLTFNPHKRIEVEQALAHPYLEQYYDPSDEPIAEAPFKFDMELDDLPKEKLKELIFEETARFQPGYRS

[3] = molecular target: T3, Active phosphorylated His6-tagged ERK2 D319N (rat (p-0033 says mouse)), P63086; details: modification not given; phosphorylated (active form; sites not given)
T3 chain: T2 chain with K131R, D317N

[4] = molecular target: T4, Active phosphorylated His6-tagged ERK2 E320K (rat (p-0033 says mouse)), P63086; details: modification not given; phosphorylated (active form; sites not given)
T4 chain: T2 chain with K131R, E318K

[5] = molecular target: T4, Active phosphorylated His6-tagged ERK2 …; details: modification not given; phosphorylated (active form; sites not given)
[6] = molecular target: T2, Active phosphorylated His6-tagged ERK2 …; details: modification not given; phosphorylated (active form; sites not given)
[7] = molecular target: T3, Active phosphorylated His6-tagged ERK2 …; details: modification not given; phosphorylated (active form; sites not given)
[8] = molecular target: T1, Active phosphorylated His6-tagged ERK2 …; details: modification not given; phosphorylated (active form; sites not given); remark: listed apart in the source
[9] = molecular target: T4, Active phosphorylated His6-tagged ERK2 …; details: modification not given; phosphorylated (active form; sites not given)
[10] = molecular target: T1, Active phosphorylated His6-tagged ERK2 …; details: modification not given; phosphorylated (active form; sites not given); remark: listed apart in the source
[11] = molecular target: T3, Active phosphorylated His6-tagged ERK2 …; details: modification not given; phosphorylated (active form; sites not given)
[12] = molecular target: T2, Active phosphorylated His6-tagged ERK2 …; details: modification not given; phosphorylated (active form; sites not given)
[13] = molecular target: T1, Active phosphorylated His6-tagged ERK2 …; assay: competitive peptide kinase assay; D-peptide titrated as competitive inhibitor of 10 nM ERK2 on 5 μM D-site dependent reporter peptide (AQT0376), 10 μM ATP; 54 mM HEPES pH 7.4, 1.2 mM DTT, 0.01% Brij-35, 1% glycerol, 0.2 mg/ml BSA, 10 mM MgCl2; fluorescence read-out; IC50 as relative binding affinity
[14] = molecular target: T2, Active phosphorylated His6-tagged ERK2 …; assay: as above
[15] = molecular target: T3, Active phosphorylated His6-tagged ERK2 …; assay: as above
[16] = molecular target: T4, Active phosphorylated His6-tagged ERK2 …; assay: as above

B1: ELK1 (peptide)
chain: PQKGRKPRDLELPL
modifications: not fully specified (some residues, N-terminus)
IC50 [1]: 35 µM | IC50 [2]: 58 µM | IC50 [3]: 32 µM | IC50 [4]: 43 µM

B2: PTPN5 (peptide)
chain: GLQERRGSNVSLTL
modifications: not fully specified (some residues, N-terminus)
IC50 [5]: 600 µM | IC50 [6]: 760 µM | IC50 [7]: 600 µM | IC50 [8]: 42 µM

B3: MAP2K2 (peptide)
chain: ARRKPVLPALTINP
modifications: not fully specified (some residues, N-terminus)
IC50 [9]: 41 µM | IC50 [10]: 23 µM | IC50 [11]: 23 µM | IC50 [12]: 29 µM

B4: ISG20 D-peptide G2+ (peptide)
chain: IGRARRGLPRLAVSD
modifications: not checked
IC50 [13]: 120 µM | IC50 [14]: 150 µM | IC50 [15]: 150 µM | IC50 [16]: 170 µM

B5: ISG20 D-peptide G7+ (peptide)
chain: IRARRGGLPRLAVSD
modifications: not checked
IC50 [13]: 75 µM | IC50 [14]: 170 µM | IC50 [15]: 150 µM | IC50 [16]: 210 µM
